Test [1] deals with HLA-G2 isoform expressed on Expi293F cells (human) (UniProt P17693). The test can be described thus: flow cytometry on Expi293F cells transfected with HLA-G2, antibody 10 µg/ml. A general note: In flow cytometry, cells or beads pass a laser one at a time.
For test [2], the target named is HLA-G3 isoform expressed on Expi293F cells (human) (UniProt P17693). The test can be described thus: flow cytometry on Expi293F cells transfected with HLA-G3, antibody 10 µg/ml.
Test [3] addresses HLA-G1 isoform expressed on Expi293F cells (human) (UniProt P17693). Briefly: flow cytometry on Expi293F cells transfected with HLA-G1, antibody 10 µg/ml.
The target in test [4] is HLA-G4 isoform expressed on Expi293F cells (human) (UniProt P17693). Briefly: flow cytometry on Expi293F cells transfected with HLA-G4, antibody 10 µg/ml.
Test [5] concerns the target HLA-G2 isoform expressed on Expi293F cells (human) (UniProt P17693). Briefly: flow cytometry on Expi293F cells transfected with HLA-G2, negative control staining.
Test [6] has as its target HLA-G1 isoform expressed on Expi293F cells (human) (UniProt P17693). The test can be described thus: flow cytometry on Expi293F cells transfected with HLA-G1, negative control staining.
The target in test [7] is HLA-G2 isoform expressed on Expi293F cells (human) (UniProt P17693). Briefly: flow cytometry on Expi293F cells transfected with HLA-G2, negative control staining; same profile as the HLA-G2 row of FIG. 5A, drawn larger.
The target of test [8] is HLA-G4 isoform expressed on Expi293F cells (human) (UniProt P17693). The test can be described thus: flow cytometry on Expi293F cells transfected with HLA-G4, negative control staining.

On to “commercial Mouse anti-HLA-G antibody 4H84 (Abcam, Mouse IgG1)”, for which the % of the cells stained worked out at 34% in test [1], 67% in test [2], 81% in test [3] and 16% in test [4].
For the substance 2nd Ab (neg CTRL) (antibody), the % (positive cells) is 1% in test [5], 1% in test [6], 1% in test [7] and 2% in test [8].

Values taken from patent US20250026836A1.
